Data taken from patent publication US20240117061A1.
Where two headings read alike, the source gives them in different places.

Key:
[1] = biological target: human BCMA on cells (NCI-H929, U266B1, HEK293 huBCMA) (human) (UniProt Q02223); experiment: flow cytometry on NCI-H929 cells
[2] = biological target: recombinant human BCMA-his fusion protein (ACRO Biosystem, Cat. No. BCA-H522y) (human) (UniProt Q02223); experiment: ELISA, coated antigen
[3] = biological target: recombinant human BCMA-his fusion protein (ACRO Biosystem, Cat. No. BCA-H522y) (human) (UniProt Q02223); experiment: competitive ELISA, coated huBCMA-his, competitor 83A10-biotin
[4] = biological target: recombinant human BCMA-his fusion protein (ACRO Biosystem, Cat. No. BCA-H522y) (human) (UniProt Q02223); experiment: as above; remark: listed apart in the source

Chain of recombinant human BCMA-his fusion protein (ACRO Biosystem, Cat. No. BCA-H522y) (human) (Q02223 1-54): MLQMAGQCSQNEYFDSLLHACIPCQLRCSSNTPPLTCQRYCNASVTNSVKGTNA
Chain of positive control antibody 83A10 (VH): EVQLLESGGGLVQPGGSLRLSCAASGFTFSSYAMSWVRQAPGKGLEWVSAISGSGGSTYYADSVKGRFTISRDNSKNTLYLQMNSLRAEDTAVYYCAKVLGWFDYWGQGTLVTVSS
Chain of positive control antibody 83A10 (VL): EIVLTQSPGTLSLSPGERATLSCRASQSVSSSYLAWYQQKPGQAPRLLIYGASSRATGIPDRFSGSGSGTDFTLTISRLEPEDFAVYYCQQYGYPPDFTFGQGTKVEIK
Chain of human BCMA on cells (NCI-H929, U266B1, HEK293 huBCMA) (human) (Q02223 whole entry, the tested form may be a part): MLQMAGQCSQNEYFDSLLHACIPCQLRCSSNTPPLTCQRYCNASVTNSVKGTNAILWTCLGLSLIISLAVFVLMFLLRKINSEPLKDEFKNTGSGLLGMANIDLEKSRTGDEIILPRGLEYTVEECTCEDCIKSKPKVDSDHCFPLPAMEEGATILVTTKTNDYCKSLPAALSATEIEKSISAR

positive control antibody 83A10 gave an EC50 [1] of 8.69 nM, an EC50 [2] of 0.0253 nM and an IC50 [3] of 9.8 µg/mL. For the same substance, the IC50 [4] was 15 µg/mL.
